Measurements: patent US8840892B2, “Method of administering antibiotic therapy for treating intracellular infectious diseases” (Universidad Nacional Autónoma de México, priority 2003, dated 2014)

Tests used:
[1] = mouse, in vivo
PGE formation (COX-2) = test: inhibition of PGE formation by selective COX-2 inhibitors
[2] = system: Mycobacterium tuberculosis; test: experimental model of pulmonary tuberculosis in BALB/c mice; format: in vivo
TGF-β = conditions: recombinant soluble form, in vitro; cited from earlier work

In the case of `COc1ccc2c(c1)c(CC(=O)O)c(C)n2C(=O)c1ccc(Cl)cc1` [indometacine], the gastric side effect [1] is reported as “extensive erosive gastritis”.

With `O=C(O)c1cccnc1Nc1cccc(C(F)(F)F)c1` [niflumic acid, reference compound] the “inhibition of the formation of PGE” value (PGE formation (COX-2)) was 98%, the “bacteria colony forming units (CFU) in lung” value ([2]; mouse, in vivo) was “decreased significantly” and the “decrease of the area affected by pneumonia in relation to the control group” value ([2]; mouse, in vivo) was 25%. For the same molecule, the “expression of IL-2, TNF-α, IFN-γ and nitric acid synthetase (increase) and interleukin 10 (decrease)” value ([2]; mouse, in vivo) was “same pattern”.

B1: soluble betaglycan: soluble (recombinant) ectodomain of betaglycan, TGF-β type III receptor; natural antagonist of TGF-β (protein, UniProt Q03167 21-787, looked up)
extracellular domain: GPEPGALCELSPVSASHPVQALMESFTVLSGCASRGTTGLPQEVHVLNLRTAGQGPGQLQREVTLHLNPISSVHIHHKSVVFLLNSPHPLVWHLKTERLATGVSRLFLVSEGSVVQFSSANFSLTAETEERNFPHGNEHLLNWARKEYGAVTSFTELKIARNIYIKVGEDQVFPPKCNIGKNFLSLNYLAEYLQPKAAEGCVMSSQPQNEEVHIIELITPNSNPYSAFQVDITIDIRPSQEDLEVVKNLILILKCKKSVNWVIKSFDVKGSLKIIAPNSIGFGKESERSMTMTKSIRDDIPSTQGNLVKWALDNGYSPITSYTMAPVANRFHLRLENNAEEMGDEEVHTIPPELRILLDPGALPALQNPPIRGGEGQNGGLPFPFPDISRRVWNEEGEDGLPRPKDPVIPSIQLFPGLREPEEVQGSVDIALSVKCDNEKMIVAVEKDSFQASGYSGMDVTLLDPTCKAKMNGTHFVLESPLNGCGTRPRWSALDGVVYYNSIVIQVPALGDSSGWPDGYEDLESGDNGFPGDMDEGDASLFTRPEIVVFNCSLQQVRNPSSFQEQPHGNITFNMELYNTDLFLVPSQGVFSVPENGHVYVEVSVTKAEQELGFAIQTCFISPYSNPDRMSHYTIIENICPKDESVKFYSPKRVHFPIPQADMDKKRFSFVFKPVFNTSLLFLQCELTLCTKMEKHPQKLPKCVPPDEACTSLDASIIWAMMQNKKTFTKPLAVIHHEAESKEKGPSMKEPNPISPPIFHGLDTLTV
modifications: extracellular domain
In the case of B1, the “neutralization of the effects of TGF-β” value (TGF-β) is given as “potent neutralizing agent”, the “extent of pneumonia (in words)” value ([2]; advanced phase of infection) is given as “increased” and the “bacteria colony forming units (CFU) in lung” value ([2]; after 30 days of treatment, vs untreated control) is given as “decreased significantly”. The “CFU less than control group” value ([2]; after 60 days of treatment) was 50%, the “more pneumonia than the control group” value ([2]; after two months of treatment, increase vs untreated control) was 30% and the “bacillary load / amount of tuberculosis bacilli in the lung (in words)” value ([2]; intraperitoneal, advanced phase of the disease) was “significant decrease”.
